Experimental data taken from patent US20190106498A1, “TREATMENT FOR ACUTE MYELOID LEUKEMIA” (priority 2017, published 2019).

What was measured:
human AML cells = test: αCD70/decitabine treatment of AML patient-derived xenografts in NSG mice; type: in vivo; settings: αCD70 10 mg/kg, decitabine 1.5 mg/kg/d, 5 days
Protocol: FIGS. 1A-1I αCD70/decitabine combination therapy eradicates human CD34^+CD38^- AML stem/progenitor cells in murine xenografts. 5×10^6 FACS-purified […] cells from BM of newly diagnosed AML patients (patient […]) were injected intravenously into the tail vein of sub-lethally irradiated NSG mice. After engraftment (day 32 (P10) and day 97 (P25) after transplantation), mice were randomized and subjected to treatment with control mAb and 10 mg/kg αCD70 mAb (41D12-D) intraperitoneally (total of 3 injections) or decitabine and (1.5 mg/kg/day) for five consecutive days alone or in combination. One day after the last treatment, animals were sacrificed and blood, spleen and BM were analyzed. (FIG. 1A) Experimental setup. (FIG. 1B) CD70 expression on CD34^+CD38^- AML stem/progenitor cells. Isotype is depicted in grey; CD70 staining in black (P10) and blue (P25). […] (FIG. 1G) Representative FACS plots and (FIG. 1H) quantification indicating the frequency of CD38^- AML cells within […]^loin^-CD90^-CD34+ AML stem/progenitor cell population. […] 32 days after engraftment (engraftment in PB: 14.45+/-0.95%), NSG mice were randomized to treatment with vehicle (Veh), αCD70 mAb (αCD70, ARGX-110, 10 mg/kg), decitabine (D, 1.5 mg/kg/d) or the combination (αCD70/D) for 5 days and bone marrow, spleen and blood were analyzed.

healthy stem cells = type: cell-based, human
Protocol: FIGS. 3A-3F Anti-CD70/decitabine co-treatment reduces re-plating capacity of human CD34+CD38− AML stem/progenitor cells. […] Colonies and cells were enumerated after 14 days. (FIG. 3A) Colonies per 1×10^3 plated cells. (FIG. 3B) Cells per colony. (FIG. 3C) Serial re-plating experiments. (d-f) FACS-purified lin-CD90+CD34+CD38− stem/progenitor cells from BM of “healthy” donors were cultured and plated in methylcellulose as described in (a-c). (FIG. 3D) Colonies per 1×10^3 plated cells. (FIG. 3E) Cells per colony. (FIG. 3F) Serial re-plating experiments. Data are represented as mean±S.D. Statistics: One-way-ANOVA. Dunnett's post-test (vs. αCD70/D); *, P<0.05; **, P<0.01; ***, P<0.001.

soluble CD27 = test: Serum soluble CD27 ELISA in patients; type: in vivo, human; settings: representative patient
Protocol: FIG. 10 The serum samples were analysed using an ELISA (Duoset ELISA, human CD27/TNFRSF7 (cat: DY382-05, R&D Systems). Concentration of soluble CD27 in the sample is calculated from a calibration curve. The method allows measurement of the serum concentration of natural human soluble CD27 by means of a sandwich ELISA method. Goat Anti-Human CD27 Capture antibody is coated on a microplate and nonspecific binding sites are blocked. Human serum samples are applied and bound human soluble CD27 is detected and visualized by the subsequent additions of Biotinylated Goat Anti-Human CD27 Detection antibody, Streptavidin-HRP and the mixture of the colour reagent H2O2 and the chromogenic substrate tetramethylbenzidine (TMB).
To assess the effect of anti-CD70 monotherapy and combination therapy on the CD27/CD70 interaction as well as to further explore the effect on blast percentage and stemness, patients' soluble CD27 levels were also measured.

[1] = in vivo
Protocol: (§1) Subjects received a loading dose of ARGX-110 on Day −14, followed by administration of ARGX-110 in combination with standard doses of AZA. Doses of ARGX-110 were administered intravenously every 2 weeks (loading dose at Day −14 and further doses on Days 3 and 17) in combination with standard doses of AZA to determine the dose limiting toxicity (see FIG. 4). The first patient of each cohort was monitored until day 7 before a second patient was included. […] The ARGX-110 dose level in the first cohort in Phase I was 1 mg/kg body weight.
(§2) All subjects in the study received a single loading dose of ARGX-110 on Day −14, at the same dose level as the bi-weekly dose. Subjects in Phase I of the study received one of the following treatments: • Cohort 1: 1 mg/kg body weight IV on Days 3 and 17 of a 28-day cycle • Cohort 2: 3 mg/kg body weight IV on Days 3 and 17 of a 28-day cycle • Cohort 3: 10 mg/kg body weight IV on Days 3 and 17 of a 28-day cycle • Cohort 4: 20 mg/kg body weight IV on Days 3 and 17 of a 28-day cycle

[2] = Phase I/II trial: adverse events and toxicity
Protocol: as §1, §2

B1: ARGX-110: IgG1 anti-CD70 antibody with defucosylated Fc region; VH SEQ ID NO: 4, VL SEQ ID NO: 8 (antibody, V domains shown)
VH: EVQLVESGGGLVQPGGSLRLSCAASGFTFSVYYMNWVRQAPGKGLEWVSDINNEGGTTYYADSVKGRFTISRDNSKNSLYLQMNSLRAEDTAVYYCARDAGYSNHVPIFDSWGQGTLVTVSS
VL: QAVVTQEPSLTVSPGGTVTLTCGLKSGSVTSDNFPTWYQQTPGQAPRLLIYNTNTRHSGVPDRFSGSILGNKAALTITGAQADDEAEYFCALFISNPSVEFGGGTQLTVLG
modifications: IgG1, defucosylated Fc; Custom antibody fragment
Q: Which “number of CD34+CD38− and CD34+CD45− cells (LSCs)” value (human AML cells) does the source give for B1 here?
A: reduced both the number of CD34+CD38− cells and of CD34+CD45− cells

Q: What about the “total engraftment in the bone marrow, spleen and blood” value (human AML cells) of the same molecule?
A: reduced total engraftment

Q: What about the “effect on healthy stem cells (colonies, cells per colony, re-plating)” value (healthy stem cells) of the same molecule?
A: no effect on healthy cells compared to vehicle alone

Q: What about the “sCD27 levels after the end of treatment (EOT)” value (soluble CD27) of the same molecule?
A: rise after the end of treatment

Q: What about the sCD27 levels (soluble CD27; monotherapy C1D1 vs Loading, then combination therapy) of the same molecule?
A: reduces sCD27 levels compared to before treatment

Q: What about the “Lung infection, Grade 3-5 adverse events: Total” value [1] of the same molecule?
A: 1

Q: And the “Tooth Infection, Grade 3-5 adverse events: Total” value [1]?
A: 1

Q: What about the “Lung infection, Grade 3-5 adverse events: (patients)” value ([1]; 1 mg/kg) of the same molecule?
A: 1 (1)

Q: And the “Lung infection, Grade 3-5 adverse events: Events” value ([1]; 1 mg/kg)?
A: 1 (1)

Q: And the “Tooth Infection, Grade 3-5 adverse events: (patients)” value ([1]; 3 mg/kg)?
A: 1 (1)

Q: What about the “Tooth Infection, Grade 3-5 adverse events: Events” value ([1]; 3 mg/kg) of the same molecule?
A: 1 (1)

Q: And the “Anaemia, Grade 3-5 adverse events: (patients)” value (“Anaemia … (patients)” for short) ([2]; Cohort 1 (1 mg/kg), with AZA)?
A: 1

Q: And the “Anaemia, Grade 3-5 adverse events: Events” value ([2]; Cohort 1 (1 mg/kg), with AZA)?
A: 4

Q: And the “Febrile Neutropenia, Grade 3-5 adverse events: (patients)” value (shortened to “Febrile Neutropenia … (patients)”) ([2]; Cohort 1 (1 mg/kg), with AZA)?
A: 2 (2)

Q: What about the “Febrile Neutropenia, Grade 3-5 adverse events: Events” value ([2]; Cohort 1 (1 mg/kg), with AZA) of the same molecule?
A: 2 (2)

Q: What about the “Leukopenia, Grade 3-5 adverse events: (patients)” value ([2]; Cohort 1 (1 mg/kg), with AZA) of the same molecule?
A: 1 (1)

Q: What about the “Leukopenia, Grade 3-5 adverse events: Events” value ([2]; Cohort 1 (1 mg/kg), with AZA) of the same molecule?
A: 1 (1)

Q: What about the “Neutropenia, Grade 3-5 adverse events: (patients)” value ([2]; Cohort 1 (1 mg/kg), with AZA) of the same molecule?
A: 1

Q: What about the “Neutropenia, Grade 3-5 adverse events: Events” value ([2]; Cohort 1 (1 mg/kg), with AZA) of the same molecule?
A: 2

Q: What about the “Pleuropericarditis, Grade 3-5 adverse events: (patients)” value ([2]; Cohort 1 (1 mg/kg), with AZA) of the same molecule?
A: 1 (1)

Q: And the “Pleuropericarditis, Grade 3-5 adverse events: Events” value ([2]; Cohort 1 (1 mg/kg), with AZA)?
A: 1 (1)

Q: And the “Thrombocytopenia, Grade 3-5 adverse events: (patients)” value (“Thrombocytopenia … (patients)” below) ([2]; Cohort 1 (1 mg/kg), with AZA)?
A: 2

Q: What about the “Thrombocytopenia, Grade 3-5 adverse events: Events” value ([2]; Cohort 1 (1 mg/kg), with AZA) of the same molecule?
A: 8

Q: What about the “Anaemia … (patients)” value ([2]; Cohort 2 (3 mg/kg), with AZA) of the same molecule?
A: 3

Q: And the “Anaemia, Grade 3-5 adverse events: Events” value ([2]; Cohort 2 (3 mg/kg), with AZA)?
A: 10

Q: What about the “Constipation, Grade 3-5 adverse events: (patients)” value ([2]; Cohort 2 (3 mg/kg), with AZA) of the same molecule?
A: 1 (1)

Q: And the “Constipation, Grade 3-5 adverse events: Events” value ([2]; Cohort 2 (3 mg/kg), with AZA)?
A: 1 (1)

Q: What about the “Fever, Grade 3-5 adverse events: (patients)” value ([2]; Cohort 2 (3 mg/kg), with AZA) of the same molecule?
A: 1 (1)

Q: And the “Fever, Grade 3-5 adverse events: Events” value ([2]; Cohort 2 (3 mg/kg), with AZA)?
A: 1 (1)

Q: And the “Hypertension, Grade 3-5 adverse events: (patients)” value ([2]; Cohort 2 (3 mg/kg), with AZA)?
A: 1

Q: What about the “Hypertension, Grade 3-5 adverse events: Events” value ([2]; Cohort 2 (3 mg/kg), with AZA) of the same molecule?
A: 2

Q: And the “Hypokalaemia, Grade 3-5 adverse events: (patients)” value ([2]; Cohort 2 (3 mg/kg), with AZA)?
A: 1 (1)

Q: And the “Hypokalaemia, Grade 3-5 adverse events: Events” value ([2]; Cohort 2 (3 mg/kg), with AZA)?
A: 1 (1)

Q: And the “Leukopenia, Grade 3-5 adverse events: (patients)” value ([2]; Cohort 2 (3 mg/kg), with AZA)?
A: 1 (1)

Q: And the “Leukopenia, Grade 3-5 adverse events: Events” value ([2]; Cohort 2 (3 mg/kg), with AZA)?
A: 1 (1)

Q: And the “Neutropenia, Grade 3-5 adverse events: (patients)” value ([2]; Cohort 2 (3 mg/kg), with AZA)?
A: 1

Q: And the “Neutropenia, Grade 3-5 adverse events: Events” value ([2]; Cohort 2 (3 mg/kg), with AZA)?
A: 4

Q: What about the “Proctitis, Grade 3-5 adverse events: (patients)” value ([2]; Cohort 2 (3 mg/kg), with AZA) of the same molecule?
A: 1

Q: And the “Proctitis, Grade 3-5 adverse events: Events” value ([2]; Cohort 2 (3 mg/kg), with AZA)?
A: 2

Q: What about the “Thrombocytopenia … (patients)” value ([2]; Cohort 2 (3 mg/kg), with AZA) of the same molecule?
A: 3 (3)

Q: And the “Thrombocytopenia, Grade 3-5 adverse events: Events” value ([2]; Cohort 2 (3 mg/kg), with AZA)?
A: 3 (3)

Q: What about the “Disease Progression, Grade 3-5 adverse events: (patients)” value ([2]; Cohort 3 (10 mg/kg), with AZA) of the same molecule?
A: 1 (1)

Q: And the “Disease Progression, Grade 3-5 adverse events: Events” value ([2]; Cohort 3 (10 mg/kg), with AZA)?
A: 1 (1)

Q: And the “Febrile Neutropenia … (patients)” value ([2]; Cohort 3 (10 mg/kg), with AZA)?
A: 1 (1)

Q: What about the “Febrile Neutropenia, Grade 3-5 adverse events: Events” value ([2]; Cohort 3 (10 mg/kg), with AZA) of the same molecule?
A: 1 (1)

Q: And the “Thrombocytopenia … (patients)” value ([2]; Cohort 3 (10 mg/kg), with AZA)?
A: 1

Q: What about the “Thrombocytopenia, Grade 3-5 adverse events: Events” value ([2]; Cohort 3 (10 mg/kg), with AZA) of the same molecule?
A: 2

Q: And the “Anaemia … (patients)” value ([2]; Cohort 4 (20 mg/kg), with AZA)?
A: 1

Q: What about the “Anaemia, Grade 3-5 adverse events: Events” value ([2]; Cohort 4 (20 mg/kg), with AZA) of the same molecule?
A: 2

Q: And the “Febrile Neutropenia … (patients)” value ([2]; Cohort 4 (20 mg/kg), with AZA)?
A: 1 (1)

Q: And the “Febrile Neutropenia, Grade 3-5 adverse events: Events” value ([2]; Cohort 4 (20 mg/kg), with AZA)?
A: 1 (1)

Q: What about the “Thrombocytopenia … (patients)” value ([2]; Cohort 4 (20 mg/kg), with AZA) of the same molecule?
A: 2 (2)

Q: What about the “Thrombocytopenia, Grade 3-5 adverse events: Events” value ([2]; Cohort 4 (20 mg/kg), with AZA) of the same molecule?
A: 2 (2)

Q: What about the “Anaemia, Grade 3-5 adverse events: Total” value ([2]; all cohorts) of the same molecule?
A: 16

Q: And the “Constipation, Grade 3-5 adverse events: Total” value ([2]; all cohorts)?
A: 1

Q: And the “Disease Progression, Grade 3-5 adverse events: Total” value ([2]; all cohorts)?
A: 1

Q: What about the “Febrile Neutropenia, Grade 3-5 adverse events: Total” value ([2]; all cohorts) of the same molecule?
A: 4

Q: And the “Fever, Grade 3-5 adverse events: Total” value ([2]; all cohorts)?
A: 1

Q: And the “Hypertension, Grade 3-5 adverse events: Total” value ([2]; all cohorts)?
A: 2

Q: What about the “Hypokalaemia, Grade 3-5 adverse events: Total” value ([2]; all cohorts) of the same molecule?
A: 1

Q: What about the “Leukopenia, Grade 3-5 adverse events: Total” value ([2]; all cohorts) of the same molecule?
A: 1

Q: What about the “Neutropenia, Grade 3-5 adverse events: Total” value ([2]; all cohorts) of the same molecule?
A: 6

Q: And the “Pleuropericarditis, Grade 3-5 adverse events: Total” value ([2]; all cohorts)?
A: 1

Q: And the “Proctitis, Grade 3-5 adverse events: Total” value ([2]; all cohorts)?
A: 2

Q: And the “Thrombocytopenia, Grade 3-5 adverse events: Total” value ([2]; all cohorts)?
A: 15

Q: And the toxicity ([2]; monotherapy or in combination with aza)?
A: did not result in any observed increase in toxicity
